Source: publication PMC7081346, “Identification and characterization of N9-methyltransferase involved in converting caffeine into non-stimulatory theacrine in tea” (Nature Communications, 2020)

Tests used:
CkTbS [1] = biological target: T1, CkTbS (Camellia sinensis, UniProt A0A6C0WX00, S270C); assay: in vitro methylation assay, HPLC; format: biochemical; details: SAM as methyl donor; printed as C270S, but CkTbS residue 270 is Ser
T1 construct: gene TBS; full-length, recombinant from E. coli BL21(DE3); N-terminal His6-SUMO tag cleaved with ULP1
T1 sequence (A0A6C0WX00 whole entry S270C): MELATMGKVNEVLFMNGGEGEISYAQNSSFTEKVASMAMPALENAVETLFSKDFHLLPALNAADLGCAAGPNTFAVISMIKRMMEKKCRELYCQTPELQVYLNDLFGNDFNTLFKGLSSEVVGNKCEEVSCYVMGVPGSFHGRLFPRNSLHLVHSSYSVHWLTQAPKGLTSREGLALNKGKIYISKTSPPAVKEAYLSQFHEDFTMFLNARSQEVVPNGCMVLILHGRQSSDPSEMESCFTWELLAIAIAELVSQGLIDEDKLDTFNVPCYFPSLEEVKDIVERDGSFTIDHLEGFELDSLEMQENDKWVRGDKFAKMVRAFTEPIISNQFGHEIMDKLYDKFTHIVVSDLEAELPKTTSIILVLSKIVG

CkTbS [2] = biological target: T2, CkTbS (Camellia sinensis, UniProt A0A6C0WX00, T241I); assay: in vitro methylation assay, HPLC; format: biochemical; details: SAM as methyl donor
T2 construct: gene TBS; full-length, recombinant from E. coli BL21(DE3); N-terminal His6-SUMO tag cleaved with ULP1
T2 sequence (A0A6C0WX00 whole entry T241I): as the sequence (A0A6C0WX00 whole entry S270C) above, with T241I, C270S counted along it

CkTbS [3] = biological target: T3, CkTbS (Camellia sinensis, UniProt A0A6C0WX00, H226R/T241I/S270C); assay: in vitro methylation assay, HPLC; format: biochemical; details: SAM as methyl donor; triple mutant, composition from the three variable residues
T3 construct: gene TBS; full-length, recombinant from E. coli BL21(DE3); N-terminal His6-SUMO tag cleaved with ULP1
T3 sequence (A0A6C0WX00 whole entry H226R/T241I/S270C): as the sequence (A0A6C0WX00 whole entry S270C) above, with H226R, T241I counted along it

[4] = biological target: the molecule itself; assay: crystal structure; CkTcS (eight N-terminal residues truncated) mixed with 2 mM SAH and 5 mM 1,3,7-trimethyluric acid; hanging drop, 4 °C, 0.1 M HEPES (pH 7.5), 1 M sodium citrate; 3.14 Å; homodimer in the crystal lattice
purified protein = substrate: C[S+](CC[C@H](N)C(=O)O)C[C@H]1O[C@@H](n2cnc3c(N)ncnc32)[C@H](O)[C@@H]1O; assay: purified protein; details: 50 μM 1,3,7-trimethyluric acid, 200 μM MgCl2, 100 mM Tris-HCl pH 7.0, 27 °C
[5] = substrate: Cn1cnc2[nH]c(=O)[nH]c(=O)c21; assay: theobromine formation by HPLC-MS; format: biochemical, Camellia sinensis; details: 1.5 mM SAM, 200 μM MgCl2, 100 mM Tris-HCl pH 7.0, 27 °C
[6] = substrate: Cn1c(=O)c2c([nH]c(=O)n2C)n(C)c1=O; assay: theacrine formation by HPLC-MS; format: biochemical, Camellia sinensis; details: 1.5 mM SAM, 200 μM MgCl2, 100 mM Tris-HCl pH 7.0, 27 °C

In the case of `Cn1c(=O)c2c([nH]c(=O)n2C)n(C)c1=O` [compound 5, 1,3,7-trimethyluric acid], the “in vitro methylation assay, HPLC” value (CkTbS [1]) is reported as “Single mutation of T241I or C270S on CkTbS led to a moderate increase”, the “in vitro methylation assay, HPLC” value (CkTbS [2]) is reported as “Single mutation of T241I or C270S on CkTbS led to a moderate increase” and the “in vitro methylation assay, HPLC” value (CkTbS [3]) is reported as “the double and triple mutations further increased the N-methyltransferase activity”.

B1: theacrine synthase CkTcS (N9-methyltransferase), N-terminal eight residues truncated (enzyme, Camellia assamica var. kucha (Kucha), UniProt A0A6C0WW36 9-370, looked up)
chain: VKEVLFMNTGEGESSYVQNSSFTEKVASMAMPALENAVETLFSKDFHLFQAINAADLGCATGPNTFAVISTIKRMMEKKCRELNCQTLELQVYMNDLFGNDFNTLFKGLSSKVIGNKCEEVSCYVMGVPGSFHGRLFPRNSLHLVHSSYSVHWLTQAPKGLTSREGLALNKGRIYISKTSPPVVREAYLSQFHEDFTMFLNARSQEVVPNGCMVLILRGRQSSDPSDMQSCFIWELLAIAIAELVSQGLIDEDKLDTFNIPCYFPSLEEVKDIVERDGSFTIDHMEGFELDSLQMQENDKWVRGEKFAKIVRAFTEPIISNQFGHEIMDKLYDKFTHIVVSDLEAKLPKTTSIILVLSKIVG
notes: CkTcS, theacrine synthase (N9-methyltransferase) of Camellia assamica var. kucha (Kucha); for crystallization eight residues on the N-terminal were truncated; source: E. coli BL21(DE3), purified (Nickel column, ion-exchange, size-exclusion); not shown: His6, N-terminal, cleaved; SUMO, N-terminal, cleaved
With B1 the “stoichiometry N” value [4] was 2.

B2: CkTcS (Camellia sinensis var. assamica) (protein)
chain: MELATRGKVKEVLFMNTGEGESSYVQNSSFTEKVASMAMPALENAVETLFSKDFHLFQAINAADLGCATGPNTFAVISTIKRMMEKKCRELNCQTLELQVYMNDLFGNDFNTLFKGLSSKVIGNKCEEVSCYVMGVPGSFHGRLFPRNSLHLVHSSYSVHWLTQAPKGLTSREGLALNKGRIYISKTSPPVVREAYLSQFHEDFTMFLNARSQEVVPNGCMVLILRGRQSSDPSDMQSCFIWELLAIAIAELVSQGLIDEDKLDTFNIPCYFPSLEEVKDIVERDGSFTIDHMEGFELDSLQMQENDKWVRGEKFAKIVRAFTEPIISNQFGHEIMDKLYDKFTHIVVSDLEAKLPKTTSIILVLSKIVG
notes: full-length, recombinant from E. coli BL21(DE3); N-terminal His6-SUMO tag cleaved with ULP1; homodimer
B2 was tested, and the Km (purified protein) was 109.50 µM, the Km [5] was 226.20 ± 33.95 µM and the kcat [5] was 6.07 ± 0.21 ×10^-3 s^-1. The Km [6] was 4.68 ± 0.72 µM and the kcat [6] was 11.42 ± 0.37 ×10^-3 s^-1.

B3: CkCS (Camellia sinensis var. assamica) (protein)
chain: MELATREKVNEVLFMNRGEGESSYAQNSSFTQQVASMAQPALENAVETLFSKDFHLQALNAADLGCAAGPNTFAVISTIKRMMEKKCRELNCQTLELQVYLNDLFGNDFNTLFKGLSSEVIGNKCEEVPCYVMGVPGSFHGRLFPRNSLHLVYSSYSVHWLTQAPKGLTSREGLALNKGKIYISKTSPPVVREAYLSQFHEDFTMFLNYRSQEMVPNGCMVLILRGRQCFDPSDMQSCFTWELLALAIAELVSQGLIDEDKLDTFNIPSYFASLEEVKDIVERDGSFTIDHIEGFDLDSVEMQENDKWVRGEKFTKVVRAFSEPIISSQFGHEIMDKLYDKFTHIVVSDLEAKLPKTTSIILVLSKIVG
notes: full-length, recombinant from E. coli BL21(DE3); N-terminal His6-SUMO tag cleaved with ULP1
With B3 the Km [6] was 71.49 ± 15.60 µM and the kcat [6] was 0.12 ± 0.01 ×10^-3 s^-1.

B4: CkTbS (Camellia sinensis var. assamica) (protein)
chain: MELATMGKVNEVLFMNGGEGEISYAQNSSFTEKVASMAMPALENAVETLFSKDFHLLPALNAADLGCAAGPNTFAVISMIKRMMEKKCRELYCQTPELQVYLNDLFGNDFNTLFKGLSSEVVGNKCEEVSCYVMGVPGSFHGRLFPRNSLHLVHSSYSVHWLTQAPKGLTSREGLALNKGKIYISKTSPPAVKEAYLSQFHEDFTMFLNARSQEVVPNGCMVLILHGRQSSDPSEMESCFTWELLAIAIAELVSQGLIDEDKLDTFNVPSYFPSLEEVKDIVERDGSFTIDHLEGFELDSLEMQENDKWVRGDKFAKMVRAFTEPIISNQFGHEIMDKLYDKFTHIVVSDLEAELPKTTSIILVLSKIVG
notes: as for B3
In the case of B4, the Km [6] is reported as 162.20 ± 27.80 µM and the kcat [6] is reported as 0.18 ± 0.01 ×10^-3 s^-1.
